# Data as given in patent publication US7041457B2, “Gαq protein variants and their use in the analysis and discovery of agonists and antagonists of chemosensory receptors” (Senomyx, Inc., priority 2000, dated 2006).
# Positions count from the first letter of the chain named.
# T1: bitter receptor mT2R5 (Mus musculus, UniProt Q9JKT4)
# T1 construct: expressed in transfected cells
# T1 sequence (Q9JKT4 1-300): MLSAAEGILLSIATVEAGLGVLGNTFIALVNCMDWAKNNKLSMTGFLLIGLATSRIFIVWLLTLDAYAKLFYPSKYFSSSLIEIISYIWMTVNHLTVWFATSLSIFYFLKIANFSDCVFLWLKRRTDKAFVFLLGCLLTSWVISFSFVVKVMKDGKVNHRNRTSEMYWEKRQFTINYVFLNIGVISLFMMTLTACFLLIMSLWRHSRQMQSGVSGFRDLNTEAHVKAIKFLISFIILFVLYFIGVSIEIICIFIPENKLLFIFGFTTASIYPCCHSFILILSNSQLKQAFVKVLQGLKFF
# T2: mouse olfactory receptor 17 (Mus musculus, UniProt Q9QWU6)
# T2 construct: expressed in transfected cells
# T2 sequence (Q9QWU6 1-327): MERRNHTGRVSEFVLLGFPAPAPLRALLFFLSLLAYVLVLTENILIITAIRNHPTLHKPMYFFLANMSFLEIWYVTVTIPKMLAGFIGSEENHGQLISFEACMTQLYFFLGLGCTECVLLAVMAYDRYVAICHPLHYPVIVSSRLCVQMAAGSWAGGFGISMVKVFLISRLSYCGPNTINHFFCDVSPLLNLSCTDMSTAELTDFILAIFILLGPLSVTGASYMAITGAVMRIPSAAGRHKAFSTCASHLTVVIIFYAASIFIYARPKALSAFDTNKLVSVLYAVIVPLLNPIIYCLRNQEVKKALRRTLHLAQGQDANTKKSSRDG
# B1: MGq (ΔN-HVD-HA)-t5: mouse Gαq ΔN-HVD-HA with C-terminal five amino acids replaced by those of transducin, SEQ ID NO:6 (protein, listed as Mus sp.)
# chain: MACCLSEEAKEARRINDEIERHVRRDKRDARRELKLLLLGTGESGKSTFIKQMRIIHGSGYSDEDKRGFTKLVYQNIFTAMQAMIRAMDTLKIPYKYEHNKAHAQLVREVDVEKVSAFDVPDYAAIKSLWNDPGIQECYDRRREYQLSDSTKYYLNDLDRVADPSYLPTQQDVLRVRVPTTGIIEYPFDLQSVIFRMVDVGGQRSERRKWIHCFENVTSIMFLVALSEYDQVLVESDNENRMEESKALFRTIITYPWFQNSSVILFLNKKDLLEEKIMYSHLVDYFPEYDGPQRDAQAAREFILKMFVDLNPDSDKIIYSHFTCATDTENIRFVFAAVKDTILQLNLKDCGLF
# modifications: HA tag; transducin C-terminal five residues
# B2: HGq: human Gαq protein, SEQ ID NO:15 (protein, listed as Homo sapiens)
# chain: MTLESIMACCLSEEAKEARRINDEIERQLRRDKRDARRELKLLLLGTGESGKSTFIKQMRIIHGSGYSDEDKRGFTKLVYQNIFTAMQAMIRAMDTLKIPYKYEHNKAHAQLVREVDVEKVSAFENPYVDAIKSLWNDPGIQECYDRRREYQLSDSTKYYLNDLDRVADPAYLPTQQDVLRVRVPTTGIIEYPFDLQSVIFRMVDVGGQRSERRKWIHCFENVTSIMFLVALSEYDQVLVESDNENRMEESKALFRTIITYPWFQNSSVILFLNKKDLLEEKIMYSHLVDYFPEYDGPQRDAQAAREFILKMFVDLNPDSDKINYSHFTCATDTENIRFVFAAVKDTILQLNLKEYNAV
# B3: MGq (HV-HA)-t5: mouse Gαq HV-HA with C-terminal five amino acids of transducin, SEQ ID NO:12 (protein, listed as Mus sp.)
# chain: MTLESIMACCLSEEAKEARRINDEIERHVRRDKRDARRELKLLLLGTGESGKSTFIKQMRIIHGSGYSDEDKRGFTKLVYQNIFTAMQAMIRAMDTLKIPYKYEHNKAHAQLVREVDVEKVSAFDVPDYAAIKSLWNDPGIQECYDRRREYQLSDSTKYYLNDLDRVADPSYLPTQQDVLRVRVPTTGIIEYPFDLQSVIFRMVDVGGQRSERRKWIHCFENVTSIMFLVALSEYDQVLVESDNENRMEESKALFRTIITYPWFQNSSVILFLNKKDLLEEKIMYSHLVDYFPEYDGPQRDAQAAREFILKMFVDLNPDSDKIIYSHFTCATDTENIRFVFAAVKDTILQLNLKDCGLF
# modifications: HA tag; transducin C-terminal five residues
# B4: MGq (HVD-HA)-t5: mouse Gαq HVD-HA with C-terminal five amino acids of transducin, SEQ ID NO:13 (protein, listed as Mus sp.)
# chain: B3 chain with G66D
# modifications: HA tag; transducin C-terminal five residues
# B5: HGq (ΔN): human Gαq with truncation of N-terminal six amino acids, SEQ ID NO:16 (protein, listed as Homo sapiens)
# chain: MACCLSEEAKEARRINDEIERQLRRDKRDARRELKLLLLGTGESGKSTFIKQMRIIHGSGYSDEDKRGFTKLVYQNIFTAMQAMIRAMDTLKIPYKYEHNKAHAQLVREVDVEKVSAFENPYVDAIKSLWNDPGIQECYDRRREYQLSDSTKYYLNDLDRVADPAYLPTQQDVLRVRVPTTGIIEYPFDLQSVIFRMVDVGGQRSERRKWIHCFENVTSIMFLVALSEYDQVLVESDNENRMEESKALFRTIITYPWFQNSSVILFLNKKDLLEEKIMYSHLVDYFPEYDGPQRDAQAAREFILKMFVDLNPDSDKIIYSHFTCATDTENIRFVFAAVKDTILQLNLKEYNAV
# B6: MGq (ΔN-HVD-HA)-t44: mouse Gαq ΔN-HVD-HA with C-terminal 44 amino acids of transducin, SEQ ID NO:7 (protein, listed as Mus sp.)
# chain: MACCLSEEAKEARRINDEIERHVRRDKRDARRELKLLLLGTGESGKSTFIKQMRIIHGSGYSDEDKRGFTKLVYQNIFTAMQAMIRAMDTLKIPYKYEHNKAHAQLVREVDVEKVSAFDVPDYAAIKSLWNDPGIQECYDRRREYQLSDSTKYYLNDLDRVADPSYLPTQQDVLRVRVPTTGIIEYPFDLQSVIFRMVDVGGQRSERRKWIHCFENVTSIMFLVALSEYDQVLVESDNENRMEESKALFRTIITYPWFQNSSVILFLNKKDLLEEKIMYSHLVDYFPEYDGPQRDAQAAREFILKMFVDLNPDNMRRDVKEIYSHMTCATDTQNVKFVFDAVTDIIIKENLKDCGLF
# modifications: HA tag; transducin C-terminal 44 residues
# B7: MGq (ΔN-HVD-HA)-olf5: mouse Gαq ΔN-HVD-HA with C-terminal five amino acids of Gαolf, SEQ ID NO:14 (protein, listed as Mus sp.)
# chain: B1 chain with G60D, D349Q, C350Y, G351E, F353L
# modifications: HA tag; Gαolf C-terminal five residues
# Molecular target: T1, bitter receptor mT2R5
# Test: Functional coupling of Gq variants with bitter taste receptor mT2R5 (mammalian cell-based systems and Xenopus oocytes, calcium imaging)
# From the text: (§1) The present invention addresses the above described problems associated with using Gα15/α16, as well as other problems known in the art relating to the use of weakly promiscuous Gα proteins. […] According to the invention, the functional coupling can be determined, for example, by measuring changes in intracellular IP3 or calcium. In a particular embodiment, the Gq protein variants can be expressed in mammalian cell lines or Xenopus oocytes, and then evaluated using calcium fluorescence imaging and electrophysiological recording.
# (§2) It was found by functional analysis using single-cell calcium imaging that activation of multi-family GPCRs evoked increases in cytosolic calcium in the presence of the Gαq variants with the G66D mutation. These GPCRs include Gαs-coupled β-adrenergic receptor, Gαolf-coupled mouse 17 olfactory receptor, Gαi-coupled m2 muscarinic receptor, and gustducin-coupled bitter receptor mT2R5. No significant change in cytosolic calcium could be detected by activation of the above GPCRs in the absence of the Gαq variants. Additional GPCRs can include those disclosed in U.S. patent application Ser. No. 09/510,332 filed Feb. 22, 2000 now abandoned; and U.S. Provisional Application Nos. 60/213,849 filed Jun. 23, 2000; 60/209,840 filed Jun. 6, 2000; 60/195,536 filed Apr. 7, 2000; 60/195,534 filed Apr. 7, 2000; 60/195,532 filed Apr. 7, 2000; which are herein incorporated by references for all purposes in a manner consistent with this disclosure.
# A series of Gαq protein variants having the sequences listed in FIG. 3 were constructed and tested in mammalian cell-based systems and in Xenopus oocytes for functional coupling efficiency with bitter receptor mT2R5 and mouse olfactory receptor 17.
row,Molecule,Functional Activity With Taste Receptor MT2R5
1,B1,++
2,B2,−
3,B3,+
4,B4,++
5,B5,−
6,B6,++

# Molecular target: T2, mouse olfactory receptor 17
# Test: Functional coupling of Gq variants with mouse olfactory receptor 17 (mammalian cell-based systems and Xenopus oocytes, calcium imaging)
# Parameters: key to the marks not given beside the values
# From the text: as §1
# as §2, with “7, 2000; which are herein incorporated by references for all purposes in a manner consistent with this disclosure.” left out
row,Molecule,Functional Activity with Olfactory Receptor ml7
1,B7,++
